The results in this text go back to PMC5853461, “Transcription factor CitERF71 activates the terpene synthase gene CitTPS16 involved in the synthesis of E-geraniol in sweet orange fruit”.

B1: GCC-box-like sequence 2 (dsDNA)
DNA 1: AATTTACAAAATTATAGAAGTCAAATTACGACGTCGTAAATCTGGCGGGACTTTAATGG
DNA 2: CCATTAAAGTCCCGCCAGATTTACGACGTCGTAATTTGACTTCTATAATTTTGTAAATT
B2: mGCC-box-like sequence 2 (dsDNA)
DNA 1: AATTTACAAAATTATAGAAGTCAAATTACGACGTCGTAAATCTGGCAAAACTTTAATGG
DNA 2: CCATTAAAGTTTTGCCAGATTTACGACGTCGTAATTTGACTTCTATAATTTTGTAAATT
B3: GCC-box-like sequence 1 (dsDNA)
DNA 1: GAATGGGCGATAGAGCTCATACTTACCCGCCTCTCTTCACATTCAAACTTCTAATATTA
DNA 2: TAATATTAGAAGTTTGAATGTGAAGAGAGGCGGGTAAGTATGAGCTCTATCGCCCATTC
B4: mGCC-box-like sequence 1 (dsDNA)
DNA 1: GAATGGGCGATAGAGCTCATACTTAAAAGCCTCTCTTCACATTCAAACTTCTAATATTA
DNA 2: TAATATTAGAAGTTTGAATGTGAAGAGAGGCTTTTAAGTATGAGCTCTATCGCCCATTC

For this data set, the target named is CitERF71 (Citrus sinensis Osbeck (Newhall sweet …, UniProt A0A067HCL9 1-233)). Put plainly: EMSA; LightShift Chemiluminescent EMSA kit per manufacturer and Nieuwenhuizen et al. 2015; buffer, salt, pH and temperature not stated. The note with it: protein: recombinant; tags: N-terminal 6xHN (His) tag; label: 3' biotin; blunt. In general terms: In EMSA bound probe runs differently from free probe, usually more slowly.
Chain of CitERF71 (Citrus sinensis Osbeck (A0A067HCL9 entry or part of it): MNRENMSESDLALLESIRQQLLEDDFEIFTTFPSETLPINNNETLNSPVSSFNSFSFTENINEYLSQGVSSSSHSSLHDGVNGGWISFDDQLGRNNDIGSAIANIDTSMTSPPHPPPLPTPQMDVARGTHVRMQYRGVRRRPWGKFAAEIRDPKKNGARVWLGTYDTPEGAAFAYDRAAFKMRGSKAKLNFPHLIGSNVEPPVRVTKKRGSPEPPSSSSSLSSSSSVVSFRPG
As for B1, the binding result was “binds”.

As for B2, the binding result was “no binding”.

As to B3, the binding result was “binds”.

Turning to B4, the binding result is recorded as “no binding”.
